We go through 2 substances from paper PMC12051055, “Spectroscopy and crystallography define carotenoid oxygenases as a new subclass of mononuclear non-heme Fe^II enzymes” (The Journal of Biological Chemistry, 2025).

Data set [1] deals with Oc1cc(O)cc(/C=C/c2ccc(O)c(O)c2)c1. In words: X-ray crystal structure of complex, MCD; the value is the apparent Km from steady-state kinetics. It counts as biochemical, Neurospora crassa. The conditions noted are these: Fe(II) active site.
For another data set, the system named is CC=Cc1ccc(O)c(OC)c1. Kind of data set: steady-state kinetics of cleavage to vanillin by purified enzyme (apparent Km). It counts as biochemical, Neurospora crassa. The conditions noted are these: Fe(II).
The mark [2] stands for this setting: β-ring rotated ~[…]° away from the Val151 side chain.
[3] abbreviates: ~[…]° rotation of the β-ring toward the vacancy left from the absent Thr side chain.

As a reminder, the Km is the concentration of substrate that gives half-maximal velocity. As usually defined, the kcat is the maximal rate divided by the concentration of active sites. Broadly, the kcat/Km is the second-order rate constant that governs catalysis at low substrate concentration. Regarding “CAO1 (Neurospora crassa carotenoid oxygenase 1) (Neurospora crassa OR74A; T151V)”, in data set [1] (β-ring rotated away from the Val151 side chain), the Km was 0.027 ± 0.003 µM. Besides, in data set [1] (setting [2]), the catalytic constant (kcat) came to 1.04 ± 0.024 s⁻¹ and the catalytic efficiency (kcat/Km) is 3.87e+07 ± 4.42e+06 M⁻¹ s⁻¹. Besides, the Michaelis-Menten constant (Km) with CC=Cc1ccc(O)c(OC)c1 turned out to be 93.92 ± 12.27 µM.
Regarding “CAO1 (Neurospora crassa carotenoid oxygenase 1) (Neurospora crassa OR74A; T151G)”, the Km in data set [1] (rotation of the β-ring toward the vacancy left from the absent Thr side chain) was found to be 0.110 ± 0.013 µM. For the same substance, in data set [1] (setting [3]), the kcat was 0.089 ± 0.003 s⁻¹ and the catalytic efficiency (kcat/Km) was found to be 810000 ± 100000 M⁻¹ s⁻¹.
